Test: soluble on expression in E. coli; label from the status in PepcDB or PDB records
In the case of “MAHHHHHHMLPGDVVEVLVTNSHGTQDADDVERLCKALHLDPCAWCELHRSPFVPEDNFPPWLPLQKPLTLGQLLSAYVDISSSSYLLHQSFFESLFRIYSDSKPSSASSTSTTPSPDPEKVRLLEACASSETGPQLLRLLSKSSTPLCYPSLVDVLEVFSFVNIPLDRLLEVSGPLQTRRYSLANWIPATLPLSPLQLCMREVCARRSANLPAATPVGADAQRVADMLNRAAQDASRDHGNFFFGHTSHPLCCAARSMTRSAAGAGQRGMYVSFSLFGNSLFARQLQAGCTALCNPAQAKSLCSPLFLIGCGTGIAPLIAAVTQLMLRRACTAAGSAPFPCWVFYGARTKAELLYDEVLREALRTGAIAKYEYALSREEDNEKQGRYVTDLVKQNRLMVTDSLRNEGQLFVCGPAKALVSVRQLVKCDLLAEPDDDDSVQEQRLLVLEDRGRLNFDIWSTGNIFE”, the “soluble on expression in E. coli” value is reported as “not soluble”.
In the case of “MAHHHHHHMLPHSVPTSPHQERDRPLEQMTDEELRRELVMLIRTNAILAEESAGLQADISALCEESVRFQQSTEIEEDKVTNQLLRRLQSEEVQKHRFHHQILCEEKARRKIMDQITQVRQQMELEKQLEQEQEVQRMELQRKLIDVVNKKIEVERQLLEERRVQLEALTTKLASIKEGSLAAKSKVDGAVGSRGTQGPSASSQQCQSGTANMTHESPAAAAAAAVAASSQPPPVKTETVPSSVDLPASDVAGDDTHGTIIRLEEQLNRLLEQHAAATQASATNESLCTELGRNLETIQQAASVDRARTLKLKEELQETKRRVAVLEQRAAVGTAYAASDDSSDLPTPSVSSLYDDKRRESLLNCHQRYPSSCVPPSCSASEAGEDTRSV”, the “soluble on expression in E. coli” value is reported as “not soluble”.
With “MAHHHHHHMLQRLSHRSVLGYHGAPQVAALRCSLRFGTNIGGSYYQESDTAGTHQMNNDIRLGLVIKPQSTLVELWEQALKAWPTRRFLGSKMWVRGKLGYVWATYESINTEVEAMRTLLHSMGVEKGSRVVVISENRYEWVVVHFATMQLGAHFVALPTNVTPSEAQLVVKSTQSKVLFVETKASYAAIKGWIGRVGQLEHAICFEDQVGEGSYAVAISIAADVPEKTLARTDVRAEDTAMIVFTAGTTGPPKGVMLSHKSIVANVSSVYASLGEALTHSDMFMSLCSWCVAGALTTDLYQALCKGACVCIPPEILEGFQDLPLVNPSVIVSVAQPFQRAYANIVDDILNRRSFTKDLTRFVVGRITENRLMFKKPGRTLQAFSHALLGKFKAQFGSELRVAIIIGHQLTKDQSELMADLDVFVVNTYGFMEAGGLVATDVDVPQRLKALPGLEVRVVNEKNEIVAPGDLGEILIEAPNAMQGYFDVHIDPEEAKNSLVEYGSRTFVRSGDYGTLTGGWITVKGNKDVLITLANSKTVNPLEVEAALTKSPFIKQVFIYGNRHPYVVALVVANTKAIAAHLRKVERRDGVPLVNDREKADCIRAELRRVSQDLPPRAHVRRFAFVDEFTLANGFMTVKMGYARQKIEDHYVHYFEALYDETPKFYGFAVDDYDDLF” the “soluble on expression in E. coli” value was “soluble”.
For “MAHHHHHHMLQWVVKEVEGPFGNIATIHWAVPEGQDDGESSDNTAESQKLHHKVGQGGKVQPELQHLLEDAEDQLGAVLWNSNSVAMGHLQKHVLQNHDKACHVVELGAGVGCLGIGLAMAGARVVITDMKELVPLMEKNIELNKERILSRSNGKGSCVAMTWRWGPPPLVKQKHNAKRVKINNARQHSSNADVPSAQNERGRSPYLLPSPAFVEMQRLLDHVDLVVLCDALYGNPKSWPQLLYTLSEILAANPRCEVINFCEQRVDDVEGDFLNLLQQENAKLPPPANSAVGPEGNETMEEALLRMRGSYKWSTSTEVVGEGPSDLGMPVRVTRISWVHRSGKWGTGASTASRDVVVDGADLGR”, the “soluble on expression in E. coli” value was “not soluble”.
In the case of “MAHHHHHHMLRIGRTLLAEVTTINSTTASVSGRLIRIRKKSKWIDRRSTRVPHNGKDIWYFGDQPSCALCHIRFRYKQDYEAHKESELHVNRLRWVETMNWWRETGEPAYLKASNEQWEWFEQHVLPTKAQEMGCTLDEARRVYRQAIMTETPTWHRPLQCPTVKQEVQEPRDQRWPASPKW”, the “soluble on expression in E. coli” value is reported as “not soluble”.
For “MAHHHHHHMLVSERAQPVRLFNCLLLRAHKDDESDGAACALHKNAASTSPTTDPIAAATAVGATRLYFTEGGPSSSLTALQRYLKVEEAHTTCPLLRVLQLAPQAPTGNMQPLVYVELDTPNAVSLSDDAQGRREAVLTTCSGVCTQETMPSRWYHAPVKATLCVFQEFMRAPTTSAASEPAFWAFLESVVRYHARDFYCGAVQVELQCVFVPTFEEKQNTAYSVDVFGDYVNEKEGQAQQSSPAAGKGRTAMKICVKSTEAFEHVMAYLKTQCPLLEADFRSSHLVVYAKWSSQLSAVRDSSHSQPPAADATGAVEQAACFVWLQDDAGGGGRDGVYADAALEALLDELTLAAASISTPSRAAAVLQEEGVSSFFEACCLTHTLKRVIRKHFQAVVLRQRPLFHWVISLPPYARLSRSTTSAAVTAMRFRDNAAVSRAVWGATQMLVHWQQLSNSAHALANEALKQSFGRGSGPSRQIVSAPARVPRQRRAIQQSALYGDTFSGGSALDRQRGKVNVPHLYGADEGHDASISLSSAQRGSVMAASGLFHNLRSIKEDSFNNTSVLDAEDVFGSNPKLTTRVVKRLAQSRTSVHTAQ”, the “soluble on expression in E. coli” value was “not soluble”.
With “MAHHHHHHMMGHLTLPQLCLNVQHGKYSKKTQRPPTLSQRCVTTLISSRISRKLSPADCPTYTSTLLSAEGSTTENLKYNHRGPTTTFSATASNPIIFPN” the “soluble on expression in E. coli” value was “not soluble”.
With “MAHHHHHHMMRSPFERLYHLNNRRDRDERRNKVFQLSLLERIRDRIVSGSLKEDIARKEERLRKQEEMLTSPNGVFVRLYQNSSPRRSSNAAAEGSDCKSVGEGNRDGRASVNTTGVSSQRASTARSRMSAAESQELCNRLYETAAIVKQKKEAMRKQSVEERQRQQAEELLIARLAGQIQLERSRTRASSKRRPKTPAQLEDEARAALEKLRKEDPEGYEKKVLRGRLLSPAERVMQAERLWKHGYISKAKLEAQKKVLELKKCTFQPTINEFSGSAGVAGSGETRGKGGGGTNDDKHLSAGTDRAQRHRKANRFEELYRKGIQAKVRGETLREERDREARLRILRSRMVSDHHFRRRVELDPLLAERFMKSLVV” the “soluble on expression in E. coli” value was “not soluble”.
With “MAHHHHHHMMSMRPTTGMAPPPTGMAFSATGSSHTGPMRPTTTMGGGTTLGRIQAQVQEGTFTSTVYGYIRDHQYEEAVELLATQLEEFPRSRAAASLMAYCYYMMGDYGEAASLYEQLTKICPNIEEYRVYYAQSLYKAGAYAESNRLCTLITSPQNQTTLNKLQAAIAYEQEDIPQTKSFLDQAPETDTDMLVLRACVLSKEGSYEEALEKFKEAQNAVGFSAALTYNMALMYYKMEQYGPALRHLAEIIDRGVEEHPELNIGTNTEGGEARSVGNTQLLRETALIEAFNLKAAIEYASKNMQAAKEALTDMPPRTDAELDPVTLHNTALINMDENPTNAFKKFNFLLQNPPFPPETFQNLLLFYCKYQYYDLAADVLAENPHLAWQYLSQNNQSLYDFLDGLITAQTSPAEAYRKFDILAQKMVQQLRNMTRRIQEADQSQDAAVAKTAVRTYDVTLEEYIPVLMAQANIYWEMENYPMVEQLFRQSADFCSENDVWKQNVAHVFFMQETKFKEAIRYYSPVVEANRENILNCSAIVLANLCVSYIMTAQNEQAEEIMRRIERAEERLTYEDSSKQPLHLCIVNLVIGTLYCSKGNFEFGISRIIKSLEPYDRKIMTDTWFYAKRCFLALAMNLAKHMVSLKDSSFEEILFFFDQADLHGEKIFAFIHPDPSKQDTSPRNTARWEARQLKKLYLTLKE” the “soluble on expression in E. coli” value was “not soluble”.
For “MAHHHHHHMNEIVINNLNYNYYNGIQRTRIKALQNVNLCFERGMRILVCGKNGAGKSTLLSIIAGKKLIKENEVLIFNKQAFHDTDISNKIGYVGEWWSEEYAMNISIKDFCFNYEYTKRYKNLLKLFELDENKIISNLSKGERKKVQIMVNIIVRKDIYIFDEATESLDLVSRKLLLE”, the “soluble on expression in E. coli” value was “soluble”.
With “MAHHHHHHMNIALSHIKKQRCARLYSISSSNNMENLSVAIKIHKYEQTENAPNITNYGYCSGFIKNLKINDDIYLTGAHGYFNLPNDAIQKNTNFIFIATGTGISPYISFLKKLFAYDKNNLYNRNSNYTGYITIYYGVYNEDSILYLNELEYFQKMYPNNINIHYVFSYKQNSDATSFYVQDEIYKRKTEFLNLFNNYKCELYICGHKSIRYKVMDILKSHDQFDEKKKKRVHVEVY” the “soluble on expression in E. coli” value was “not soluble”.
